Laboratory results from PMC9891502.

Experiments:
[1] = target: full-length gB (Towne strain) expressed on HEK293T cells (UniProt P13201); experiment: flow cytometry on cells; conditions: three-point, 10-fold mAb serial dilution starting at 0.1 μg/mL; parent: 94
[2] = target: CMV gB ectodomain protein; experiment: ELISA; conditions: parent: 171.7

Substance | other: AUC [1] [AUC] | EC50 [2] [µg/mL]
TRL345 unmutated common ancestor (UCA) mAb H:A33N; H:Y52aN | 140 | –
TRL345 unmutated common ancestor (UCA) mAb H:A33N; H:Y52aN; L:N53D | 143 | –
TRL345 unmutated common ancestor (UCA) mAb H:A33N; H:Y52aN; L:S30G | 144 | –
TRL345 unmutated common ancestor (UCA) mAb H:A33N; L:N53D | 180 | –
TRL345 unmutated common ancestor (UCA) mAb H:A33N; L:S30G | 207 | –
TRL345 unmutated common ancestor (UCA) mAb H:A33N; L:S30G; L:N53D | 138 | –
TRL345 unmutated common ancestor (UCA) mAb H:Y52aN | – | 0.0851
TRL345 unmutated common ancestor (UCA) mAb H:Y52aN; L:N53D | 109 | 0.0094
TRL345 unmutated common ancestor (UCA) mAb H:Y52aN; L:S30G | 124 | –
TRL345 unmutated common ancestor (UCA) mAb H:Y52aN; L:S30G; L:N53D | – | 0.0077
TRL345 unmutated common ancestor (UCA) mAb L:N53D | 90 | 0.0197
TRL345 unmutated common ancestor (UCA) mAb L:S30G | – | 0.0127
TRL345 unmutated common ancestor (UCA) mAb L:S30G; L:N53D | 107 | –
